In US20090155164A1 (Amgen, published 2009):
Substitutions are numbered along the chain they refer to.

B1: anti-c-fms hybridoma antibody 2.508 (antibody, IgG2, V domains shown)
VH: QVQLVQSGAEVKKPGASVKVSCKVSGYTLTELSMHWVRQAPGKGLEWMGGFDPEDGETIYAQKFQGRVTMTEDTSTDTAYMELSSLRSEDTAVYYCATAGLEIRWFDPWGQGTLVTVSS
VL: DIVMTQSPLSLPVTPGEPASISCRSSQSLLHSNGYNYLDWYLQKPGQSPQFLIYLGSIRASGVPDRFSGSGSGTDFALTISRVEAEDVGVYYCMQALQTPRTFGQGTKVEIK
notes: Hybridoma IgG2 (cohort 2); also called 2.508.1; 2.508.2
B2: anti-c-fms hybridoma antibody 1.64 (antibody, IgG1, V domains shown)
VH: EVQLVESGGGLVQPGGSLRLSCAASGFTFSSYDMHWVRQATGKGLEWVSGIGTAGDTYYPGSVKGRFNISRENAKNSLYLQMNSLRAGDTAVYYCAREGSWYGFDYWGQGTLVTVSS
VL: EIVLTQSPGTLSLSPGERATLSCRASQSVSSGYLAYLAWYQQKPGQAPRLLIYGASSTATGIPDRFSGSGSGTDFTLTISRLEPEDFAVYYCQQYGSSPITFGQGTRLEIK
notes: Hybridoma IgG1 (cohort 1); also called 1.64.1; 1.64.2
B3: anti-c-fms hybridoma antibody 1.143 (antibody, IgG1, V domains shown)
VH: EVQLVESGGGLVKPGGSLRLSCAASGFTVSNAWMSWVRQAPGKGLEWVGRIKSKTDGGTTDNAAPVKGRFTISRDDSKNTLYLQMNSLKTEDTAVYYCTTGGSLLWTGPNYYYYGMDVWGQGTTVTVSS
VL: DIQMTQSPSSLSASVGDRVTITCQASQDINNYLNWYQQKPGKAPKLLIYDTSNLEPGVPSRFSGSGSGTDFTFTISSLQPEDIATYYCQQYDNLLTFGQGTRLEIK
notes: Hybridoma IgG1 (cohort 1); also called 1.143.2; 1.143.1
B4: anti-c-fms hybridoma antibody 1.16 (antibody, IgG1, V domains shown)
VH: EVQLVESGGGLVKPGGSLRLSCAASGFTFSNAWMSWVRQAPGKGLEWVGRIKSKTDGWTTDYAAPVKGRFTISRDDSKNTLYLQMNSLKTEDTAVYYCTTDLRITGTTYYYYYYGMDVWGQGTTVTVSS
VL: B3 VL with N30S, L46F, T51A, P56T, L95I
notes: Hybridoma IgG1 (cohort 1)
B5: anti-c-fms hybridoma antibody 2.65 (antibody, IgG2, V domains shown)
VH: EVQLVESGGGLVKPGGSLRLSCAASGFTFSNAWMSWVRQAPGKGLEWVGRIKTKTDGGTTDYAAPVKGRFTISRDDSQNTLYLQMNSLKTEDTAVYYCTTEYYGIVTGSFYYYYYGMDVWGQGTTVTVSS
VL: B3 VL with T51A, P56T, N93D, Q99G, R102K, L103V
notes: Hybridoma IgG2 (cohort 2); also called 2.65.2
B6: anti-c-fms hybridoma antibody 1.72 (antibody, IgG1, V domains shown)
VH: EVQLVESGGGLVEPGGSLRLSCAASGFTFSTAWMSWVRQAPGKGLEWVGRIKSKTDGGTTDYAAPVKGRFTISRDDSKNTLYLQMNSLKNEDTAVYYCTTEGPYSNYGYYYYGVDVWGQGTTVTVSS
VL: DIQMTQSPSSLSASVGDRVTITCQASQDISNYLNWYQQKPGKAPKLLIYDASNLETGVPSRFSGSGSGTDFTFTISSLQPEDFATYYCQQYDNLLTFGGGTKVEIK
notes: Hybridoma IgG1 (cohort 1); also called 1.72.2
B7: anti-c-fms hybridoma antibody 1.66 (antibody, IgG1, V domains shown)
VH: QVQLVESGGGVVQPGRSLRLSCAASGFTFSSYGMHWVRQAPGKGLEWVAVIWYDGSNEYYADSVKGRFTISRDNSKSTLYLQMNSLRAEDTAVYYCAHSSGNYYDMDVWGQGTTVTVSS
VL: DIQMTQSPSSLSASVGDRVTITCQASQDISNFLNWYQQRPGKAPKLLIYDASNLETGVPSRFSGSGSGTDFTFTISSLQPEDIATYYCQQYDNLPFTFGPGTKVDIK
notes: Hybridoma IgG1 (cohort 1); also called 1.66.1; 1.66.2
B8: anti-c-fms hybridoma antibody 1.90 (antibody, IgG1, V domains shown)
VH: B7 VH with E58K, S77N, H98S, G101S, Y103F
VL: DIQMTQSPSSLSASVGDRVTITCQASQDISNYLNWYQQKPGKAPKLLIYDASNLETGVPSRFSGSGSGTDFTFTISSLQPEDIATYYCQRYDDLPITFGQGTRLEIK
notes: Hybridoma IgG1 (cohort 1); also called 1.90.2
B9: anti-c-fms hybridoma antibody 1.134 (antibody, IgG1, V domains shown)
VH: B7 VH with E58K, S77N, H98S, G101W, N102S, D105G
VL: B8 VL with S30N, T56I, T72I, R90Q, D93N, L94F, I96F, Q100G, R103K, L104V
notes: Hybridoma IgG1 (cohort 1); also called 1.134.1
B10: anti-c-fms hybridoma antibody 1.13 (antibody, V domains shown)
VH: QVQLQESGPGLVKPSETLSLTCTVSGGSVSSGGYYWSWIRQPPGKGLEWIGYIYYSGSTNYNPSLKSRVTISVDTSKNQFSLKLSSVTAADTAVYYCAAGIAATGTLFDCWGQGTLVTVSS
VL: B8 VL with T74I, R90Q, Y91F, D93N, I96P, Q100G, R103K, L104V, I106S
notes: Hybridoma IgG1 (cohort 1)
B11: anti-c-fms hybridoma antibody 2.131 (antibody, IgG2, V domains shown)
VH: QVQLQESGPGLVKPSETLSLTCTVSGGSISNYYWSWIRQSAGKGLEWIGRIYTSGSTHYNPSLKSRIIMSVDTSKNQFSLKLSSVTAADTAVYYCARDRVFYGMDVWGQGTTVTVSS
VL: DIQMTQSPSSLSASVGDRVTITCRASQGFSNYLAWYQQKPGKVPKLLIYAASTLQSGVPSRFSGSGSGTDFTLTISSLQPEDVATYYCQKYNSAPLTFGGGTKVEIK
notes: Hybridoma IgG2 (cohort 2); also called 2.131.2
B12: anti-c-fms hybridoma antibody 2.369 (antibody, IgG2, V domains shown)
VH: QVQLVQSGAEVKKPGASVKVSCKVSGYTLTELSMHWVRQAPGKGLEWMGGFDPEDGETIYAQKFQGRVTMTEDTSTDTAYMELSSLRSEDTAVYYCATRAGTTLAYYYYAMDVWGQGTTVTVSS
VL: DIQMTQSPSSLSASVGDRVTITCRASQSISRYLNWYQQKPGKAPNLLIHAASSLQSGVPSRFSGSGSGTDFTLTISSLQPEDFATYYCQQSYITPPSFGQGTKLEIK
notes: Hybridoma IgG2 (cohort 2); also called 2.369.3
B13: anti-c-fms hybridoma antibody 2.534 (antibody, IgG2, V domains shown)
VH: QVQLQESGPGLVKPSQTLSLTCTVSGGSISSGGYYWSWIRQHPGKGLEWIGYISYSGDTYYNPSLKSRLTISVDTSKHQFSLRLSSVTSADTAVYYCASLDLYGDYFDYWGQGTLVTVSS
VL: EIVLTQSPDFQSVTPKEKVTITCRASQYIGSSLHWYQQTPDQSPKLLINYVSQSFSGVPSRFSGSGSGTDFTLTINSLEAEDAATYYCHQSSSLPFTFGPGTKVDIK
notes: Hybridoma IgG2 (cohort 2); also called 2.534.1; 2.534.2
B14: anti-c-fms hybridoma antibody 2.550 (antibody, IgG2, V domains shown)
VH: QVQLVQSGAEVKKPGASVKVSCKASGYTLTSYGISWVRQAPGQGLEWMGWISAYNGNPNYAQKFQGRVTMTTDTSTSTAYMELRSLRSDDTAVYYCARDQGLLGFGELEGLFDYWGQGTLVTVSS
VL: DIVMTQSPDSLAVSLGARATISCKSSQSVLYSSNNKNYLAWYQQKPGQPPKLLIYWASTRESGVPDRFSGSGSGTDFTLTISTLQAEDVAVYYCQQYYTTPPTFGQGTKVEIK
notes: Hybridoma IgG2 (cohort 2)
B15: anti-c-fms hybridoma antibody 1.131 (antibody, IgG1, V domains shown)
VH: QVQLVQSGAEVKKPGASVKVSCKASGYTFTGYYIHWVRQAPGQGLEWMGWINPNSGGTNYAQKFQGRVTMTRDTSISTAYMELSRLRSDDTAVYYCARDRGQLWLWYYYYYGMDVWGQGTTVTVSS
VL: DNVMTQTPLSLSVTPGQPASISCKSSQSLLHSDGKTYLYWYLQKPGQPPQLLIYEASNRFSGVPDRFSGSGSGTDFTLKISRVEAEDVGVYYCMQSIQLPLTFGGGTKVEIK
notes: Hybridoma IgG1 (cohort 1); also called 1.131.1
B16: anti-c-fms hybridoma antibody 1.33.1.1 (antibody, IgG1, V domains shown)
VH: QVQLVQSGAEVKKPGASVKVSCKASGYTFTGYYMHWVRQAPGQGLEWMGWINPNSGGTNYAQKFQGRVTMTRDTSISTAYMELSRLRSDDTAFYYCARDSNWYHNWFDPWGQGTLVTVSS
VL: DIQMTQSPSSLSASVGDRVTITCRASQSISDYLNWYQQKPGKAPNLLIYAASSLQSGVPSRFSGSGSGTDFTLTISSLQPEDFATYFCQQTYSDPFTFGPGTKVDIK
notes: Hybridoma IgG1 (cohort 1)
B17: anti-c-fms hybridoma antibody 1.109 (antibody, V domains shown)
VH: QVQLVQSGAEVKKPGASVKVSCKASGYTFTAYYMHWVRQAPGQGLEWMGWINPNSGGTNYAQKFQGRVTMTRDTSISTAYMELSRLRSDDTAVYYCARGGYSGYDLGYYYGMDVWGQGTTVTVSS
VL: DIQMTQSPSSLSASVGDRVTITCQASQNISNFLDWYQQKPGKAPNLLIYDASDLDPGVPSRFSGSGSGTDFTFTISSLQPEDIATYYCQQYVSLPLTFGGGTKVEIK
notes: Hybridoma IgG1 (cohort 1)
B18: anti-c-fms hybridoma antibody 1.42 (antibody, IgG1, V domains shown)
VH: QVQLVQSGAEVKKPGASVKVSCKASGYTFTSYGISWVRQAPGQGLEWMGWISAYNGNTNYAQKLQGRVTMTTDTSTSTAYMELRSLRSDDTAVYYCARESWFGEVFFDYWGQGTLVTVSS
VL: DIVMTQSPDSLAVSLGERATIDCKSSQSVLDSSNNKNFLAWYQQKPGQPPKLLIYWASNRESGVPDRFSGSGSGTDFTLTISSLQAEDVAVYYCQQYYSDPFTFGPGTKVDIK
notes: Hybridoma IgG1 (cohort 1); also called 1.42.3
B19: anti-c-fms hybridoma antibody 1.2 (antibody, V domains shown)
VH: B18 VH
VL: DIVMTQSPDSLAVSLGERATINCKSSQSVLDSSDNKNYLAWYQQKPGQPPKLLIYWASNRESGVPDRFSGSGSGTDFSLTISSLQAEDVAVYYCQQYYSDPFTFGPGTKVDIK
notes: Hybridoma IgG1 (cohort 1); also called 1.2.1
B20: anti-c-fms hybridoma antibody 1.30 (antibody, IgG1, V domains shown)
VH: B18 VH
VL: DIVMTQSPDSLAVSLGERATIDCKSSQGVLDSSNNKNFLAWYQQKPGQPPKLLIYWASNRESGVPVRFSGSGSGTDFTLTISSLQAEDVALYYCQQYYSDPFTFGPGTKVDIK
notes: Hybridoma IgG1 (cohort 1); also called 1.30.2; 1.30.3

target: T1, monomeric human c-fms (residues 1-512)-pHis (human, UniProt P07333 20-512); test: Biacore, low resolution; hybridoma mAb captured on anti-human IgG, monomeric c-fms-pHis analyte at 125 nM
T1 construct: Construct stated as residues 1-512; signal stated as amino acids 1-19 and left out; also called human c-fms (1-512).pHIS; monomeric c-fms
Experimental: Anti-human IgG was immobilized on all four flow cells of a sensor chip using amine coupling. Crude hybridoma samples were diluted into halves and captured on the anti-IgG surface. […] Sequence lineage analyses were also performed on the 29 hybridomas (see, FIG. 2).

T1 sequence (P07333 20-512): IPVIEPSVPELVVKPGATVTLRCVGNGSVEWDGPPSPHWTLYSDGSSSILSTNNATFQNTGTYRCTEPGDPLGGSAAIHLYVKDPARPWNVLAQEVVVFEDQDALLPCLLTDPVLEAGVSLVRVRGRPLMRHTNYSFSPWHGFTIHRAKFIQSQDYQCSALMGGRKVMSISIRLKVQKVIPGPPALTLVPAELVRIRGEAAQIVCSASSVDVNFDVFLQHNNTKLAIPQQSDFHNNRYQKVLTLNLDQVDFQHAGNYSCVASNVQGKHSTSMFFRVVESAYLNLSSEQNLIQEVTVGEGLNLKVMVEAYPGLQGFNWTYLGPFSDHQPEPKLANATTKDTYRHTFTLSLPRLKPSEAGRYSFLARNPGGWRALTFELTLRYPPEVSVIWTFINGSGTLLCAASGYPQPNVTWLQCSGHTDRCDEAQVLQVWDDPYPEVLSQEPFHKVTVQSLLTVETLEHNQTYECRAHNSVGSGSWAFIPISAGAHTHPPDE

Row | Binder | Kd | koff | kon
1 | B1 | 0.7 nM | 5.28e-05 s⁻¹ | 74900 M⁻¹ s⁻¹
2 | B2 | 2.5 nM | 0.00064 s⁻¹ | 255000 M⁻¹ s⁻¹
3 | B3 | 10 nM | 0.000559 s⁻¹ | 55000 M⁻¹ s⁻¹
4 | B4 | 23 nM | 0.00296 s⁻¹ | 129000 M⁻¹ s⁻¹
5 | B5 | 9.5 nM | 0.0016 s⁻¹ | 168000 M⁻¹ s⁻¹
6 | B6 | 5.5 nM | 0.000568 s⁻¹ | 103000 M⁻¹ s⁻¹
7 | B7 | 23 nM | 0.0055 s⁻¹ | 239000 M⁻¹ s⁻¹
8 | B8 | 10 nM | 0.002 s⁻¹ | 193000 M⁻¹ s⁻¹
9 | B9 | 4.6 nM | 0.000703 s⁻¹ | 153000 M⁻¹ s⁻¹
10 | B10 | 6.4 nM | 0.000773 s⁻¹ | 120000 M⁻¹ s⁻¹
11 | B11 | ≤ 0.2 nM | ≤ 1e-05 s⁻¹ | 43000 M⁻¹ s⁻¹
12 | B12 | 14 nM | 0.00138 s⁻¹ | 100000 M⁻¹ s⁻¹
13 | B13 | 43 nM | 0.015 s⁻¹ | 345000 M⁻¹ s⁻¹
14 | B14 | 24 nM | 0.00724 s⁻¹ | 300000 M⁻¹ s⁻¹
15 | B15 | 41 nM | 0.00215 s⁻¹ | 53100 M⁻¹ s⁻¹
16 | B16 | 1.2 nM | 0.000116 s⁻¹ | 98900 M⁻¹ s⁻¹
17 | B17 | 0.1 nM | 4.36e-05 s⁻¹ | 385000 M⁻¹ s⁻¹
18 | B18 | 1.6 nM | 0.00107 s⁻¹ | 660000 M⁻¹ s⁻¹
19 | B19 | 1.4 nM | 0.00113 s⁻¹ | 817000 M⁻¹ s⁻¹
20 | B20 | 3.4 nM | 0.0014 s⁻¹ | 406000 M⁻¹ s⁻¹

target: T2, human c-fms, full length, on cells (human, UniProt P07333 20-972); test: cell-based or functional assay
T2 sequence (P07333 20-972): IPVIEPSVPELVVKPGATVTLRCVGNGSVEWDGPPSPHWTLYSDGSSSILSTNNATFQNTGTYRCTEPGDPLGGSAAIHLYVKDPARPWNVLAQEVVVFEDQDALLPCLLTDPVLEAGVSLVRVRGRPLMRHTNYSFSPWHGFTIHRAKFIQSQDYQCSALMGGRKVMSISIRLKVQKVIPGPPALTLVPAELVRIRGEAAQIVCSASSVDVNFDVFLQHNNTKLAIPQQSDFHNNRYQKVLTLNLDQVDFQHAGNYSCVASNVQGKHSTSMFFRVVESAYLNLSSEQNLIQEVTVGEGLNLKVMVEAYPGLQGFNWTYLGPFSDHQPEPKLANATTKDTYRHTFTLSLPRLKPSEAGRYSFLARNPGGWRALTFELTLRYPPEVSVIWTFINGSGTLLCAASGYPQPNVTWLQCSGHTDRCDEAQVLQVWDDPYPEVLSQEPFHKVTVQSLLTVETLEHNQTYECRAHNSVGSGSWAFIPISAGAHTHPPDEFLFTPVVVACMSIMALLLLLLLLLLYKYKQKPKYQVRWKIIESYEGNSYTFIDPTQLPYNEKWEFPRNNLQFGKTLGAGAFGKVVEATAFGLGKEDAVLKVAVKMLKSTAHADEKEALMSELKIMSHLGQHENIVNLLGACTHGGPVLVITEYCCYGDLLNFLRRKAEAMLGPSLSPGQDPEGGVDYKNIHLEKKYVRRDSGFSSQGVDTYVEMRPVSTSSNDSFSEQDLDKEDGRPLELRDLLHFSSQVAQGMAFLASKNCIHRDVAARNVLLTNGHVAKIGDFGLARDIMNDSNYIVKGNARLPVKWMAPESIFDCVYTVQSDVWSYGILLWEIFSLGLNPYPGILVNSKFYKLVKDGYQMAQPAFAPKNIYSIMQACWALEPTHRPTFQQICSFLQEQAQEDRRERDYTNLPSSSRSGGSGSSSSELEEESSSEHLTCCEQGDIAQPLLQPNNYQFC

Row | Binder | AML-5 bioassay IC50 | Human CD14+ monocytes bioassay IC50
21 | B1 | 5 ng/mL | 20 ng/mL
22 | B2 | 0.6 ng/mL | 2 ng/mL
23 | B3 | 15 ng/mL | –
24 | B7 | 4 ng/mL | 10 ng/mL
25 | B9 | 1 ng/mL | < 1 ng/mL
26 | B13 | 3 ng/mL | 7 ng/mL
27 | B17 | 0.7 ng/mL | 3 ng/mL
28 | B18 | 3 ng/mL | 10 ng/mL
29 | B19 | 0.9 ng/mL | < 1 ng/mL
30 | B20 | 6 ng/mL | 10 ng/mL

target: T3, cynomolgus monkey c-fms on primary bone marrow cells (cynomolgus monkey); test: cell-based or functional assay

Row | Binder | Cynomolgus bone marrow bioassay IC50
31 | B3 | 54 ng/mL
32 | B7 | 7 ng/mL
33 | B9 | 6 ng/mL
34 | B17 | 11 ng/mL
35 | B19 | 6 ng/mL
36 | B20 | 10 ng/mL

target: T2, human c-fms, full length, on cells; test: cell-based or functional assay; remark: another data set of the same source

Row | Binder | AML-5 bioassay IC50 | Human CD14+ monocytes bioassay IC50
37 | B1 | 0.02 nM | 0.133 nM
38 | B2 | 0.004 nM | 0.013 nM
39 | B3 | 0.1 nM | –
40 | B7 | 0.027 nM | 0.067 nM
41 | B9 | 0.007 nM | < 0.007 nM
42 | B13 | 0.02 nM | 0.047 nM
43 | B17 | 0.005 nM | 0.02 nM
44 | B18 | 0.02 nM | 0.067 nM
45 | B19 | 0.006 nM | < 0.007 nM
46 | B20 | 0.04 nM | 0.067 nM

target: T3, cynomolgus monkey c-fms on primary bone …; test: cell-based or functional assay; remark: another data set of the same source

Row | Binder | Cynomolgus bone marrow bioassay IC50
47 | B3 | 0.36 nM
48 | B7 | 0.047 nM
49 | B9 | 0.04 nM
50 | B17 | 0.073 nM
51 | B18 | 0.2 nM
52 | B19 | 0.04 nM
53 | B20 | 0.267 nM
